Laboratory results taken from patent publication US20260116963A1 (GENERATE BIOMEDICINES, published 2026).
Where a chain is given by its changes, count along the chain named. Values belong to the binder of their own block, whether it stands above or below them.

How the values were obtained:
[1] = target: T1, human IL-13 (human, UniProt P35225 25-146, limits assumed); test: KinExA, 25 C
T1 construct: The KinExA antigen was detected with an anti-HIS IgG, so it probably carried a HIS tag; also called Interleukin-13; hIL-13

[2] = target: T1, human IL-13; test: cell-based or functional assay
[3] = target: T1, human IL-13; test: KinExA, solution equilibrium, free antigen captured on Ref1-coated beads, 25 C
[4] = target: T2, cynomolgus IL-13 (cynomolgus, UniProt Q0PW92 21-132); test: as above
[5] = target: T3, mouse IL-13 (mouse, UniProt P20109 19-131, limits assumed); test: SPR (Biacore 8K+), antibody captured on anti-human IgG Fc chip, IL-13 as analyte, 25 C
T3 construct: also called recombinant mouse IL-13
T3 sequence (looked up): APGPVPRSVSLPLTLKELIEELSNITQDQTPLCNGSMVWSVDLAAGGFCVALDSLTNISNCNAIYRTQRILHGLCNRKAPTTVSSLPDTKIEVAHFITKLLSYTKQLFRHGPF

[6] = target: T1, human IL-13; test: SPR (Biacore 8K+), antibody captured, human IL-13 as analyte, 37 C; less than 5% decay in 5,400 s, KD estimated
[7] = target: T1, human IL-13; test: SPR (Biacore 8K+), antibody captured on anti-human Fc CM4 chip, human IL-13 0.6-10 nM as analyte, 37 C, 1:1 fit
[8] = target: T1, human IL-13; test: SPR array (Carterra LSA), antibody captured on anti-human pAb HC30M chip, human IL-13 0.05-100 nM as analyte, 25 C, 1:1 fit
[9] = target: T4, human FcγRI (human, UniProt P12314 16-288, limits assumed, biotinylated (site not stated)); test: BLI (summary of Example 8)
[10] = target: T5, human FcγRIIa-H167 (human, UniProt P12318 36-218, limits assumed, biotinylated (site not stated)); test: BLI (summary of Example 8)
T5 sequence (looked up): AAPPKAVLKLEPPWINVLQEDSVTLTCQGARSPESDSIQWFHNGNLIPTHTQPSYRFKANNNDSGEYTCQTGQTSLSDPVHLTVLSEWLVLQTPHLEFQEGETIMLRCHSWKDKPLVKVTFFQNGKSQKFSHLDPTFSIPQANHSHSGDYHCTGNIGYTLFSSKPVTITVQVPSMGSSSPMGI

[11] = target: T6, human FcγRIIa-R167 (human, UniProt P12318 36-218, limits assumed, biotinylated (site not stated)); test: BLI (summary of Example 8)
T6 sequence (looked up): T5 sequence (looked up) with H132R

[12] = target: T7, human FcγRIIb (human, UniProt P31994 46-217, limits assumed, biotinylated (site not stated)); test: BLI (summary of Example 8)
T7 sequence (looked up): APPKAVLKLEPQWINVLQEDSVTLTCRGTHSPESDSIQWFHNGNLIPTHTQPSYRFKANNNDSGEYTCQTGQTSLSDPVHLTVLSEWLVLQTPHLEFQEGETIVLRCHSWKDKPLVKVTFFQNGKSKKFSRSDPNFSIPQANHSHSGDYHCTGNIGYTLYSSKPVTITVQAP

[13] = target: T1, human IL-13; test: cell-based or functional assay; remark: listed apart in the source
[14] = target: T1, human IL-13; test: cell-based or functional assay; remark: listed apart in the source
[15] = target: T2, cynomolgus IL-13; test: cell-based or functional assay
[16] = target: T8, HIS-tagged human FcRn (human, UniProt P55899 24-297; P61769 21-119); test: SPR (Biacore 8K+), pH 6.0, 25 C, steady-state fit
T8 construct: not shown: HIS tag

[17] = target: human FcγRIIIb-NA1 (human, UniProt O75015 17-200, limits assumed, biotinylated (site not stated)); test: BLI (Octet RH96), biotinylated Fcγ receptor on streptavidin sensors
[18] = target: human FcγRIIIb-NA2 (human, UniProt O75015 17-200, limits assumed, biotinylated (site not stated)); test: as above
[19] = target: human FcγRIIIa-V176 (human, UniProt P08637 17-208, biotinylated (site not stated)); test: BLI (Octet RH96), biotinylated Fcγ receptor on streptavidin sensors, antibody at 10,000 nM
[20] = target: human FcγRIIIa-F176 (human, UniProt P08637 17-208, biotinylated (site not stated)); test: as above
[21] = target: T8, HIS-tagged human FcRn; test: SPR (Biacore 8K+), antibody captured on anti-human Fab CM4 chip, HIS-tagged human FcRn 9.8-5000 nM as analyte, pH 6.0, 25 C, steady-state fit
[22] = target: T1, human IL-13; test: SPR (Biacore 8K+), antibody captured on anti-human pAb CM4 chip, human IL-13 0.6-10 nM as analyte, 37 C, 1:1 fit
[23] = target: T4, human FcγRI; test: BLI (Octet RH96), biotinylated Fcγ receptor on streptavidin sensors, antibody at 10,000 nM
[24] = target: T5, human FcγRIIa-H167; test: as above
[25] = target: T6, human FcγRIIa-R167; test: as above
[26] = target: T7, human FcγRIIb; test: as above

T2 sequence (Q0PW92 entry or part of it): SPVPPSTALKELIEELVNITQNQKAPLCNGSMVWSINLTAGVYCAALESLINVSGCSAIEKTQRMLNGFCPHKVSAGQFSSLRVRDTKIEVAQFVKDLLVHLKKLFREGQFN
T1 sequence (P35225 other isoform, or with tags, fused parts or gaps limits assumed): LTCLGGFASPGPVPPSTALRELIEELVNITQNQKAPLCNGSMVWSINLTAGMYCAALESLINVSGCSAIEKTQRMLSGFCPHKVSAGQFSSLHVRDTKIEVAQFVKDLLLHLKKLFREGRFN
Chain of human FcγRIIIa-F176 (P08637 17-208 limits assumed): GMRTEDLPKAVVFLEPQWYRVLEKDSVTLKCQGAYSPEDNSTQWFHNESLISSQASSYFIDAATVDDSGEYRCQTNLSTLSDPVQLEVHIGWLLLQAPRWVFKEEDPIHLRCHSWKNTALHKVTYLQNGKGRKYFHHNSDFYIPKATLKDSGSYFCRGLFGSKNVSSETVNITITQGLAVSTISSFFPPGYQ
Chain of human FcγRIIIb-NA1 (O75015 other isoform, or with tags, fused parts or gaps limits assumed): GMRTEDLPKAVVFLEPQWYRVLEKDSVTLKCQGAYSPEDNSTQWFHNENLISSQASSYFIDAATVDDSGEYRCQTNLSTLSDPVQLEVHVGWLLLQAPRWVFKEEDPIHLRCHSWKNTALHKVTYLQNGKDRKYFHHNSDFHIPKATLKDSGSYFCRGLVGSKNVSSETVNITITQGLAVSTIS
Chain of human FcγRIIIb-NA2 (O75015 17-200 N65S limits assumed): as the sequence (O75015 other isoform, or with tags, fused parts or gaps limits assumed) above, with R20S, N49S, D66N, V90I counted along it
T4 sequence (P12314 16-288 limits assumed): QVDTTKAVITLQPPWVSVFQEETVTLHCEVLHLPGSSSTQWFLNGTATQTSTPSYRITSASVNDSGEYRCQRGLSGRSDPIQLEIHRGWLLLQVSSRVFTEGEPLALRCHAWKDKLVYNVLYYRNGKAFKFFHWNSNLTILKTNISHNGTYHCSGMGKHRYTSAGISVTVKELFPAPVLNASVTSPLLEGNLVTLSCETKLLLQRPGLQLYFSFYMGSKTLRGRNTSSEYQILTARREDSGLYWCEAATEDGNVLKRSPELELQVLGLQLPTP
Chain of human FcγRIIIa-V176 (P08637 17-208 F176V limits assumed): as the sequence (P08637 17-208 limits assumed) above, with F160V counted along it

B1: AbG (antibody, human IgG1, kappa)
heavy: QVTLRESGPALVKPTQTLTLTCTVSGASLSAYSVNWIRQPPGKALEWLAMIWGDGKIVYNSALKSRLTISKDTSKNQVVLTMTNMDPVDTATYYCAGDGYFPYAMDNWGQGSLVTVSSASTKGPSVFPLAPSSKSTSGGTAALGCLVKDYFPEPVTVSWNSGALTSGVHTFPAVLQSSGLYSLSSVVTVPSSSLGTQTYICNVNHKPSNTKVDKRVEPKSCDKTHTCPPCPAPELLGGPSVFLFPPKPKDTLYITREPEVTCVVVDVSHEDPEVKFNWYVDGVEVHNAKTKPREEQYNSTYRVVSVLTVLHQDWLNGKEYKCKVSNKALPAPIEKTISKAKGQPREPQVYTLPPSREEMTKNQVSLTCLVKGFYPSDIAVEWESNGQPENNYKTTPPVLDSDGSFFLYSKLTVDKSRWQQGNVFSCSVMHEALHNHYTQKSLSLSPGK
light: DIVMTQSPDSLSVSLGERATINCRASKSVDSYGNSYMHWYQQKPGQPPKLLIYLASNLESGVPDRFSGSGSGTDFTLTISSLQAEDVAVYYCQQNNEDPRTFGGGTKVEIKRTVAAPSVFIFPPSDEQLKSGTASVVCLLNNFYPREAKVQWKVDNALQSGNSQESVTEQDSKDSTYSLSSTLTLSKADYEKHKVYACEVTHQGLSSPVTKSFNRGEC
notes: also called Antibody AbG
fold higher affinity than Ref2 [1]: 40 fold
IC50, HEK-Blue IL-13Ra1/IL-4Ra STAT6-SEAP reporter assay [2]: 0.174 µg/mL
Kd [3]: 0.00023 nM
koff [3]: 4.8e-07 s⁻¹
kon [3]: 2.06e+06 M⁻¹ s⁻¹
Kd [4]: 0.00072 nM
koff [4]: 1.77e-06 s⁻¹
kon [4]: 2.46e+06 M⁻¹ s⁻¹
binding result [5]: no binding
Kd [6]: < 0.015 nM
Kd [7]: 0.0126 nM
koff [7]: 7.68e-06 s⁻¹
kon [7]: 639000 M⁻¹ s⁻¹
Kd [8]: < 0.1 nM

B2: AbAB (antibody, human IgG1, kappa)
heavy: B1 heavy with L235F, L236E, P332S
light: B1 light
notes: same variable regions as AbG; also called Antibody AbAB
binding result [9]: binds
binding result [10]: binds
binding result [11]: binds
binding result [12]: binds
Mean IC50 (nM), HEK-Blue IL-4/IL-13 assay with 3.7 nM IL-13 [13]: 0.113 nM
Mean IC50 (nM) Donor 1, Phospho-STAT6 assay in human CD14+ monocytes [14]: 34.9 nM
Mean IC50 (nM) Donor 2, Phospho-STAT6 assay in human CD14+ monocytes [14]: 33 nM
Mean IC50 (nM) Donor 3, Phospho-STAT6 assay in human CD14+ monocytes [14]: 37.7 nM
Mean IC50 (nM) Donor 1, Phospho-STAT6 assay in cynomolgus CD14+ monocytes [15]: 18.8 nM
Mean IC50 (nM) Donor 2, Phospho-STAT6 assay in cynomolgus CD14+ monocytes [15]: 15.1 nM
Mean IC50 (nM) Donor 3, Phospho-STAT6 assay in cynomolgus CD14+ monocytes [15]: 18.1 nM
fold higher affinity than Ref2 [16]: 6 fold
binding result [17]: no binding (tested: 10,000 nM)
binding result [18]: no binding (tested: 10,000 nM)
binding result [19]: binds
binding result [20]: binds
binding result [5]: no binding
Kd [7]: 0.00722 nM
koff [7]: 4.85e-06 s⁻¹
kon [7]: 676000 M⁻¹ s⁻¹
Kd [21]: 129 nM

B4: Ref1 (antibody, human IgG1, kappa)
heavy: B1 heavy with A27F, F101Y
light: B1 light with Y36F
notes: hIgG1-YTE
IC50, HEK-Blue IL-13Ra1/IL-4Ra STAT6-SEAP reporter assay [2]: 0.143 µg/mL
Kd [3]: 0.00613 nM
koff [3]: 9.37e-06 s⁻¹
kon [3]: 1.53e+06 M⁻¹ s⁻¹
Kd [4]: 0.00052 nM
koff [4]: 1.09e-06 s⁻¹
kon [4]: 2.09e+06 M⁻¹ s⁻¹
Kd [7]: 0.0551 nM
koff [7]: 2.66e-05 s⁻¹
kon [7]: 483000 M⁻¹ s⁻¹
Kd [22]: 0.0484 nM
koff [22]: 2.64e-05 s⁻¹
kon [22]: 594000 M⁻¹ s⁻¹
Kd [8]: < 0.1 nM

More lines, now with the values ahead:

Mean IC50 (nM) Donor 1, Phospho-STAT6 assay in human CD14+ monocytes [14]: 32.2 nM
Mean IC50 (nM) Donor 2, Phospho-STAT6 assay in human CD14+ monocytes [14]: 31.3 nM
Mean IC50 (nM) Donor 3, Phospho-STAT6 assay in human CD14+ monocytes [14]: 33.9 nM
binding result [5]: no binding
Kd [7]: 0.0507 nM
koff [7]: 2.52e-05 s⁻¹
kon [7]: 501000 M⁻¹ s⁻¹
B3: Ref3 (antibody, human IgG1, kappa)
heavy: B1 heavy with A27F, F101Y, L235F, L236E, P332S
light: B1 light with Y36F

IC50, HEK-Blue IL-13Ra1/IL-4Ra STAT6-SEAP reporter assay [2]: 0.277 µg/mL
binding result [17]: no binding (tested: 10,000 nM)
binding result [18]: no binding (tested: 10,000 nM)
Kd [3]: 0.00909 nM
koff [3]: 9.76e-06 s⁻¹
kon [3]: 1.07e+06 M⁻¹ s⁻¹
binding result [23]: binds
binding result [24]: binds
binding result [25]: binds
binding result [26]: binds
binding result [20]: binds
binding result [5]: no binding
Kd [22]: 0.0512 nM
koff [22]: 3.22e-05 s⁻¹
kon [22]: 695000 M⁻¹ s⁻¹
Kd [21]: 734 nM
B5: Ref2 (antibody, human IgG4 S228P, kappa)
heavy: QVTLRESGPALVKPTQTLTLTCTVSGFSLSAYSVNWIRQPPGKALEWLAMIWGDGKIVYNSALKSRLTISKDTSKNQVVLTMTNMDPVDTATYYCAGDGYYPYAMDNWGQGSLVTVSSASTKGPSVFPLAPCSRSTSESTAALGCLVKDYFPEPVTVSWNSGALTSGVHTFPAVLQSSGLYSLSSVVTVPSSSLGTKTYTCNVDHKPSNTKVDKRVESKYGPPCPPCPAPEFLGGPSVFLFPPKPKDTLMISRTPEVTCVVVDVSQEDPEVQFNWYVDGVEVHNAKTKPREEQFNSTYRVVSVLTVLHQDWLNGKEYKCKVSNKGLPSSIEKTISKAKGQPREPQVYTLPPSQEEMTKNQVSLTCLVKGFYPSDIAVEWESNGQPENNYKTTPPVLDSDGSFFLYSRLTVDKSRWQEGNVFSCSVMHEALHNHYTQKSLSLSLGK
light: B1 light with Y36F
notes: hIgG4; copies: 2 + 2
